Assay results published in patent US20070212363A1.

Experiments:
Assay in all cases: cell-based or functional assay
[1] = target: HIV-1 AD8 envelope glycoprotein (Env) (HIV-1 strain AD8)
[2] = target: HIV-1 IIIB envelope glycoprotein (Env) (HIV-1 strain IIIB)
[3] = target: HIV-1 JR-FL envelope glycoprotein (Env) (HIV-1 strain JR-FL)

Substance | Neutralizing activity (percentage) at 100 µg/mL [1] | percentage of maximal infection, U87.CD4.CCR5.CXCR4 cells, 100 µg/mL antibody [1] | Neutralizing activity (percentage) at 100 µg/mL [2] | percentage of maximal infection, U87.CD4.CCR5.CXCR4 cells, 100 µg/mL antibody [2] | Neutralizing activity (percentage) at 100 µg/mL [3] | percentage of maximal infection, U87.CD4.CCR5.CXCR4 cells, 100 µg/mL antibody [3]
Fab X5 | 97% | 8.7% | 100% | 10% | 83% | 27%
IgG1 X5 (antibody) | 51% | 55% | 84% | 28% | 38% | 72%
